Measurements from patent US20120107364A1 (ACTGEN, published 2012).

Legend:
[1] = target: T1, PODXL2, positions 1 to 330 (human, UniProt O00592 23-362); test: flow cytometry on Ba/F3 cells expressing the truncated PODXL2
T1 construct: One of the 14 C-terminal truncations; Expressed on Ba/F3 cells; also called R330
T1 sequence: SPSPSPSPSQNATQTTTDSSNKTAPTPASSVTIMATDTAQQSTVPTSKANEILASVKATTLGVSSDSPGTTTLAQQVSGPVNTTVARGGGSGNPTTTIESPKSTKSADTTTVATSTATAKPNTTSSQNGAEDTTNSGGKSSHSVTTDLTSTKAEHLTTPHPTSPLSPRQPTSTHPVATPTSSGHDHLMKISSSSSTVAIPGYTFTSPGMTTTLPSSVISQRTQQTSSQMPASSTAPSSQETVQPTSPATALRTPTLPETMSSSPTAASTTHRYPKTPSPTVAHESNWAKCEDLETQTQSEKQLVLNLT
Procedure: (§1) To each sample of the cell suspension, 50 μl of the hybridoma culture supernatant or 2-μg/ml of the purified antibody (hereinafter, referred to as an “antibody solution”) was added, and the antibody was reacted with the cells. As an isotype control of the antibody solution, a wash buffer containing 2 μg/ml of each of mouse IgG1 (BioLegend, 400412), mouse IgG2a (BioLegend, 400224), and mouse IgG2b (BioLegend, 400324) was used. The hybridoma culture supernatant was reacted with the target cells at room temperature for 30 minutes, followed by centrifugation at 700×g for 2 minutes. Then, a culture supernatant was removed. Further, 100 μl of a wash buffer was added, followed by centrifugation at 700×g for 2 minutes again. A supernatant was removed. Then, the cells were washed.
(§2) Next, to the cell pellets after the washing, 50 μl of Goat anti-mouse IgG, F(ab′) 2-PE (PE=phycoerythrin, Beckman Coulter, IM0855) diluted 200-fold with a wash buffer was added as a secondary antibody for detection, and reacted in the dark at room temperature for 30 minutes. The reaction was followed by centrifugation at 700×g for 2 minutes. A supernatant was removed. Further, 100 μl of a wash buffer was added, followed by centrifugation at 700×g for 2 minutes again. A supernatant was removed. Then, the cells were washed. Thereafter, the cells were suspended in an appropriate amount of a wash buffer. The reactivity between the antibody and the cells was analyzed by a flow cytometer (Beckman Coulter, FC500 MPL).
(§3) Thereafter, by the same method as in Example 1 (4) (the virus packaging and thereafter), Ba/F3 cells containing the PODXL2 gene sequences of various chain lengths were prepared. Further, by the same method as in Example 4, the reactivity between the ACT36-27_{—}5D1 antibody and the Ba/F3 cells expressing the PODXL2 molecules of various chain lengths was analyzed by a flow cytometer (FIG. 10).

[2] = target: T2, PODXL2, positions 1 to 310 (human, UniProt O00592 23-342); test: as above
T2 construct: One of the 14 C-terminal truncations; Expressed on Ba/F3 cells; also called R310
T2 sequence: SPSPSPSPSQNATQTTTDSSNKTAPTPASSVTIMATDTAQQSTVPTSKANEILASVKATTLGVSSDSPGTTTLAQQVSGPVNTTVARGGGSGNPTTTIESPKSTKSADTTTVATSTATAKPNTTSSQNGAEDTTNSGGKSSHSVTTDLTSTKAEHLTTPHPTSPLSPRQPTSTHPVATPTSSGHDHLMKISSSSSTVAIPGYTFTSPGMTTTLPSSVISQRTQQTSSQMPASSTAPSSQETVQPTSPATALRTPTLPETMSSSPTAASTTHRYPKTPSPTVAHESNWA
Procedure: as §1, §2, §3

[3] = target: T3, PODXL2, positions 1 to 370 (human, UniProt O00592 23-402); test: as above
T3 construct: One of the 14 C-terminal truncations; Expressed on Ba/F3 cells; also called R370
T3 sequence: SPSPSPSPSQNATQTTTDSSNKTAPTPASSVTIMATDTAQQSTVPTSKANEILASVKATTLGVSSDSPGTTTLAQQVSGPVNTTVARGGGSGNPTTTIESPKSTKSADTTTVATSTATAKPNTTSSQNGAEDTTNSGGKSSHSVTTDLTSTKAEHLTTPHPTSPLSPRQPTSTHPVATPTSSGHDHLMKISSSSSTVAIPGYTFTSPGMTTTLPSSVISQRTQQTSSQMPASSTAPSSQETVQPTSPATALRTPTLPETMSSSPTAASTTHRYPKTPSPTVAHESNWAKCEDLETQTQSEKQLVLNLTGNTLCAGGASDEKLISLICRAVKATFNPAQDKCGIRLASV
Procedure: as §1, §2, §3

[4] = target: T4, human-derived PODXL2 protein (Homo sapiens podocalyxin-like (PODXL), transcript variant 2, NM-005397.3), full … (human, UniProt O00592 23-558); test: flow cytometry on Ba/F3 cells expressing PODXL2 against negative control Ba/F3 cells (FIG. 1)
T4 construct: 526 amino acids; also called full-length PODXL2 gene
T4 sequence: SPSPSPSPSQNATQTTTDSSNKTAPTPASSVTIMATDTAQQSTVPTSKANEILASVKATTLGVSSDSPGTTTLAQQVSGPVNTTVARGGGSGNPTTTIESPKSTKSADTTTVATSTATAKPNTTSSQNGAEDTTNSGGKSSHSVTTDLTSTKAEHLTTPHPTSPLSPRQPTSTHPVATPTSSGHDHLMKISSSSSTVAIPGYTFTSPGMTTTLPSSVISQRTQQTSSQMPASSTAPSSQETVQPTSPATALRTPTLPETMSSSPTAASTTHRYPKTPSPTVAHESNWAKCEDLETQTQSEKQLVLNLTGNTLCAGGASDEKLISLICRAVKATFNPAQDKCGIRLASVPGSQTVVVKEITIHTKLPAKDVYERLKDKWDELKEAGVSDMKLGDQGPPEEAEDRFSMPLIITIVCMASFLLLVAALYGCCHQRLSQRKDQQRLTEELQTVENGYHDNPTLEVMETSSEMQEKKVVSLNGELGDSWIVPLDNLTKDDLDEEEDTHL
Procedure: as §1
as §2, with “Then, the cells were washed. Thereafter, the cells were suspended in an appropriate amount of a wash buffer.” left out

B1: ACT36-27-5D1 antibody (antibody, V domains shown)
VH: EVQLQQSGPELVKPGASVKMSCKASGYTFTSYVMHWVKQKPGQGLEWIGYIHPYNDGIKYNEKFKGKATLTSDKSSSTAYMDLSSLTSEDSAVYYCARSWDWYFDVWAAGTTVTVSS
VL: QIVLTQSPAIMSASPGEKVSMTCSASSSVSYMHWYQQKSGTSPKRWIYDTSKLASGVPARFSGSGSGTSYSLTISSMEAEDAATYYCLQWSSNPPTFGGGTKLE
notes: also called anti-PODXL2 antibody ACT36-27-5D1; anti-ACT36-27-5D1 monoclonal antibody
- binding result [1]: no binding
- binding result [2]: no binding
- binding result [3]: no binding
- binding result [4]: binds
